From the supplement of paper PMC9112550, “Optimization of the antimicrobial peptide Bac7 by deep mutational scanning” (BMC Biology, 2022)

System: Escherichia coli TOP10
Experiment: shrunken log2 fold change of peptide-encoding DNA abundance (4.5 h post-induction vs induction); higher = less antimicrobial activity (less host growth inhibition)
Conditions: time post-induction: 4.5 h; library: site-saturation at positions 5, 18, 19, 20
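Note: peptides expressed intracellularly from a pBAD plasmid library in pooled LB shake-flask culture, induced with 0.3% L-arabinose, DNA abundance read by NGS, three biological replicates, DESeq2 with apeglm shrinkage.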

Sequence | shrunken log2 fold change
RRIRVRPPRLPRPRPRPEAGPRP | 0.553
RRIRVRPPRLPRPRPRPECLPRP | 0.0466
RRIRVRPPRLPRPRPRPECSPRP | -0.091
RRIRVRPPRLPRPRPRPEHDPRP | -0.249
RRIRVRPPRLPRPRPRPEIMPRP | -0.194
RRIRVRPPRLPRPRPRPEIPPRP | 0.054
RRIRVRPPRLPRPRPRPEKTPRP | 0.0303
RRIRVRPPRLPRPRPRPEMLPRP | 0.0987
RRIRVRPPRLPRPRPRPENMPRP | -0.0886
RRIRVRPPRLPRPRPRPEPDPRP | 0.242
RRIRVRPPRLPRPRPRPEQDPRP | 0.173
RRIRVRPPRLPRPRPRPERDPRP | -0.15
RRIRVRPPRLPRPRPRPERLPRP | -0.0657
RRIRVRPPRLPRPRPRPERMPRP | -0.0652
RRIRVRPPRLPRPRPRPESCPRP | 0.242
RRIRVRPPRLPRPRPRPESKPRP | 0.00683
RRIRVRPPRLPRPRPRPETCPRP | 0.437
RRIRVRPPRLPRPRPRPEVLPRP | 0.244
RRIRVRPPRLPRPRPRPEYIPRP | -0.00622
RRIRVRPPRLPRPRPRPFADPRP | -0.0225
RRIRVRPPRLPRPRPRPFAFPRP | -0.38
RRIRVRPPRLPRPRPRPFAHPRP | -0.176
RRIRVRPPRLPRPRPRPFANPRP | -0.0887
RRIRVRPPRLPRPRPRPFASPRP | 0.0656
RRIRVRPPRLPRPRPRPFAYPRP | -0.528

Sequence | shrunken log2 fold change
RRIRVRPPRLPRPRPRPFDFPRP | -0.266
RRIRVRPPRLPRPRPRPFDYPRP | -0.221
RRIRVRPPRLPRPRPRPFEAPRP | -0.193
RRIRVRPPRLPRPRPRPFIDPRP | 0.0294
RRIRVRPPRLPRPRPRPFKAPRP | -0.316
RRIRVRPPRLPRPRPRPFNEPRP | -0.258
RRIRVRPPRLPRPRPRPFNVPRP | -0.185
RRIRVRPPRLPRPRPRPFPDPRP | -0.345
RRIRVRPPRLPRPRPRPFPWPRP | -0.0892
RRIRVRPPRLPRPRPRPFQAPRP | -0.127
RRIRVRPPRLPRPRPRPFQEPRP | 0.00442
RRIRVRPPRLPRPRPRPFQFPRP | -0.171
RRIRVRPPRLPRPRPRPFRPPRP | -0.324
RRIRVRPPRLPRPRPRPFTNPRP | -0.0456
RRIRVRPPRLPRPRPRPFTVPRP | -0.105
RRIRVRPPRLPRPRPRPFWMPRP | 0.0403
RRIRVRPPRLPRPRPRPGAEPRP | 0.271
RRIRVRPPRLPRPRPRPGAQPRP | 0.00624
RRIRVRPPRLPRPRPRPGDDPRP | 0.364
RRIRVRPPRLPRPRPRPGDFPRP | 0.0156
RRIRVRPPRLPRPRPRPGDNPRP | 0.174
RRIRVRPPRLPRPRPRPGECPRP | -0.145
RRIRVRPPRLPRPRPRPGEIPRP | 0.0835
RRIRVRPPRLPRPRPRPGFYPRP | -0.345
RRIRVRPPRLPRPRPRPGHWPRP | 0.164

Sequence | shrunken log2 fold change
RRIRVRPPRLPRPRPRPGLKPRP | 0.049
RRIRVRPPRLPRPRPRPGLVPRP | 0.807
RRIRVRPPRLPRPRPRPGMRPRP | 0.565
RRIRVRPPRLPRPRPRPGPFPRP | -0.0278
RRIRVRPPRLPRPRPRPGPQPRP | 0.245
RRIRVRPPRLPRPRPRPGPSPRP | 0.201
RRIRVRPPRLPRPRPRPGPTPRP | 0.448
RRIRVRPPRLPRPRPRPGPWPRP | 0.273
RRIRVRPPRLPRPRPRPGQNPRP | -0.104
RRIRVRPPRLPRPRPRPGQVPRP | 0.0448
RRIRVRPPRLPRPRPRPGQYPRP | -0.113
RRIRVRPPRLPRPRPRPGRQPRP | 0.0976
RRIRVRPPRLPRPRPRPGSRPRP | 0.177
RRIRVRPPRLPRPRPRPGTFPRP | -0.867
RRIRVRPPRLPRPRPRPGTMPRP | -0.122
RRIRVRPPRLPRPRPRPGVHPRP | 0.107
RRIRVRPPRLPRPRPRPGVMPRP | -0.261
RRIRVRPPRLPRPRPRPHAHPRP | -0.256
RRIRVRPPRLPRPRPRPHCFPRP | -0.147
RRIRVRPPRLPRPRPRPHCHPRP | -0.105
RRIRVRPPRLPRPRPRPHCQPRP | -0.401
RRIRVRPPRLPRPRPRPHEHPRP | -0.0873
RRIRVRPPRLPRPRPRPHFPPRP | 0.046
RRIRVRPPRLPRPRPRPHGTPRP | -0.408
RRIRVRPPRLPRPRPRPHHKPRP | -0.477
